Positions count from the first letter of the chain named.
What was measured:
Assay in all cases: flow cytometry on transfected 293T cells, PE secondary antibody, geo mean
[1] = molecular target: T1, human CCR7 variant S202N (20110009483) (human, UniProt P32248 25-378)
T1 sequence: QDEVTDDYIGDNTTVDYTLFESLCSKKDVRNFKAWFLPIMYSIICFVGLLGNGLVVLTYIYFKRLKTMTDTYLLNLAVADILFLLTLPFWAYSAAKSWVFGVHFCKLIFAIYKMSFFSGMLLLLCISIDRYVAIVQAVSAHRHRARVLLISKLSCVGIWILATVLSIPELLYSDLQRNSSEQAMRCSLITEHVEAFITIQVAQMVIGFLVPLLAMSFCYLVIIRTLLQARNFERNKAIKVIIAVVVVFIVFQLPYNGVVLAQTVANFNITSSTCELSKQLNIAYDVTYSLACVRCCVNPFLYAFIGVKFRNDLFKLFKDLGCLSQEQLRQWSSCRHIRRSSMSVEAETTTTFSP

[2] = molecular target: T2, human CCR7 variant M208L (20100171271) (human, UniProt P32248 25-378)
T2 sequence: T1 sequence with N178S, M184L

[3] = molecular target: T3, human CCR7 variant L300T (20110018204) (human, UniProt P32248 25-378)
T3 sequence: T1 sequence with N178S, L276T

[4] = molecular target: T4, human CCR7 variant S295N (20110018205) (human, UniProt P32248 25-378)
T4 sequence: T1 sequence with N178S, S271N

[5] = molecular target: T5, human CCR7 variant S204G (20100171269) (human, UniProt P32248 25-378)
T5 sequence: T1 sequence with N178S, S180G

[6] = molecular target: T6, human CCR7 variant A118E (20100130760) (human, UniProt P32248 25-378)
T6 sequence: T1 sequence with A94E, N178S

[7] = molecular target: T7, wild-type human CCR7 (pcDNA3.1 Neo-hCCR7, 20100121357) (human, UniProt P32248 25-378)
T7 construct: Expressed on transfected 293T, CHO AM1/D or HEK293T cells; also called huCCR7; CCR7 receptor
T7 sequence: T1 sequence with N178S

Measured: binding result

B1: antibody 6B4.1 (antibody, V domains shown)
VH: QVQLVESGGGVVQPGRSLRLSCAASGFTFSSYGMHWVRQAPGKGLEWVAVIWYDGSKKYYADSVKGRFTISRDNSKNTLYLQMNRLRAEDTAVYYCARDGGIAVFLQDNWFDPWGQGTLVTVSS
VL: SYELTQPPSVSVSPGQRARITCSGDKLGDKYASWYQQKPGQSPLLVIYQDSKRPSGIPERFSGSNSGNTATLTISGTQAMDEADYYCQAWGSSTVIFGGGTKLTVLG
notes: Human antibody from XenoMouse hybridoma; Light = 2 and heavy = 42 is inferred from the order of the listing (light chains first)
not listed: [7]
binds: all other assays above

B2: antibody 6B5.1 (antibody, human IgG2, lambda, V domains shown)
VH: B1 VH with S30R, Q107E
VL: B1 VL with R19S, S51G
notes: Human antibody from XenoMouse hybridoma; Light = 18 and heavy = 50 is inferred from the order of the listing
binds: all assays above

Source: patent US20170342155A1 (Amgen, published 2017)
